Patent US20110286916A1

How the values were obtained:
[1] = molecular target: endogenous human Notch1 on 293 FlpIn (TREx) parental, LS-1034 and BxPC3 cells (human) (UniProt P46531); test: FACS, LS-1034 and BxPC3 cells
[2] = molecular target: human full-length Notch1 with C-terminal FLAG tag, stably expressed on 293 FlpIn (TREx) cells (human) (UniProt P46531); test: FACS, 293 FlpIn (TREx) cells expressing Notch1

## IgG isotype control antibody
[1]
  MFI: 9
[2]
  MFI: 9
